The record followed here is patent US20200199207A1 (MABYLON, published 2020).

The target in one assay is T1, nAra h 2 (peanut, UniProt Q6PSU2 22-172).
T1 construct: Bought natural allergen; also called naturally extracted Ara h 2
T1 sequence (looked up): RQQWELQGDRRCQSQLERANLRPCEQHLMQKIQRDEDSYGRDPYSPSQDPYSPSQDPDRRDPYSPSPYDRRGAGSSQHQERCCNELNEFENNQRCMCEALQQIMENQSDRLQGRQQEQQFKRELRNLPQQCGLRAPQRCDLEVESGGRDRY
Description: ELISA, antigen-coated plate. The protocol: (§1) EC50 binding of exemplary anti-peanut antibodies of the present invention to peanut allergens or peanut extract, was determined by ELISA. Serial dilutions of MAbs (from 1000 ng/ml down to 0.0169 ng/ml) were incubated for 2 hours with antigen-coated plates (coating overnight at 4° C. or 1 h at 37° C. with 1 μg/ml antigen in PBS, followed by wash out and blocking with 2% BSA in PBS). The plates were subsequently washed and binding of MAbs was detected with anti-human HRP-conjugated Fc-gamma-specific secondary antibody (Jackson ImmunoResearch, West Grove, Pa., USA). Concentrations of MAb resulting in half of maximal binding to respective antigens (EC50, ng/ml) were calculated using GraphPad Prism 5 software on sigmoidal dose-response curves (variable slope, 4 parameters) obtained by plotting the log of the concentration versus OD450 nm measurements; for the results see FIG. 3 and table 2.
A general note: ELISA stands for enzyme-linked immunosorbent assay.

The next assay has as its target T2, nAra h 1 (peanut, UniProt P43238 85-626).
T2 construct: Bought natural allergen; also called naturally extracted Ara h 1
T2 sequence (looked up): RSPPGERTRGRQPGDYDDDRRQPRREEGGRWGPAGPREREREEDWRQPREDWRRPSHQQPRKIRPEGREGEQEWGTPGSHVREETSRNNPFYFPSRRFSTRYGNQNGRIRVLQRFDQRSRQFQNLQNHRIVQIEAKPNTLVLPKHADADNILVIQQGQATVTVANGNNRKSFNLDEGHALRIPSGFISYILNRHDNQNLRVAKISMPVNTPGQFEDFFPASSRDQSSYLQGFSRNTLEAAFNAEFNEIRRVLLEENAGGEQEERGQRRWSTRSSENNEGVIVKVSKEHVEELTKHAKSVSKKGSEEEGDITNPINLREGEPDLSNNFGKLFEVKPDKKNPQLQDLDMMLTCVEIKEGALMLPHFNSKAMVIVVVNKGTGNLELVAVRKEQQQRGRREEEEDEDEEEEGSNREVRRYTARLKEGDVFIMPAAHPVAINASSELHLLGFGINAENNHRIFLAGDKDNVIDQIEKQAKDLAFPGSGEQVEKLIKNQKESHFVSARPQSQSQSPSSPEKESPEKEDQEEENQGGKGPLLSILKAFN
Description: ELISA, antigen-coated plate. As for the experimental part:
as §1

The target in a further assay is T3, nAra h 6 (peanut, UniProt Q647G9 22-145).
T3 construct: Bought natural allergen; also called naturally extracted Ara h 6
T3 sequence (looked up): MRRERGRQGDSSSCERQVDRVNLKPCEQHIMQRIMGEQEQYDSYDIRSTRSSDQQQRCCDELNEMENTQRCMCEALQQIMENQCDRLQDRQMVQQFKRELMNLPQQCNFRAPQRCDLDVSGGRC
Description: ELISA, antigen-coated plate. As for the experimental part:
as §1

Another assay deals with T4, nBet v 1 (UniProt P15494 2-160).
T4 sequence (looked up): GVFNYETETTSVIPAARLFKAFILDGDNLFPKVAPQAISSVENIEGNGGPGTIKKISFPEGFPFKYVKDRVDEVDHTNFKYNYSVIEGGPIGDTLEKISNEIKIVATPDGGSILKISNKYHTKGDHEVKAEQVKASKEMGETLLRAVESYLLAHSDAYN
Description: ELISA, antigen-coated plate. As for the experimental part: as §1

The next assay addresses T5, Peptide 1 (peanut).
T5 construct: 20-mer of Ara h 2, overlap of 12 with its neighbours; also called linear Ara h 2 peptide 1
T5 peptide: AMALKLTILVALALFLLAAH
Description: competition ELISA, peptide in solution vs coated Ara h 2. As for the experimental part: (§2) A competition ELISA was used to evaluate binding of exemplary anti-peanut antibodies of the present invention to linear Ara h 2 epitopes. Serial dilutions of linear Ara h 2 epitopes (100 μM down to 0.19 nM; peptides with a length of 20 amino acids and an overlap of 12 amino acids between the peptides) were pre-incubated with exemplary anti-peanut antibodies ([…]) for 1 hour at room temperature. The pre-incubated antibody-epitope mixtures were subsequently incubated on plates coated with full length Ara h 2 (coating overnight at 4° C. with 0.05 μg/ml Ara h 2 in PBS, followed by wash out and blocking with 2% BSA in PBS). The plates were subsequently washed and binding of MAbs to Ara h 2 was detected HRP-conjugated goat anti human Fc-gamma-specific antibody (Jackson ImmunoResearch, West Grove, Pa., USA) followed by measurement of the HRP activity using a tetramethylbenzidine substrate solution (TMB, Sigma-Aldrich Chemie GmbH, Buchs, Switzerland). As may be seen from Table 5, exemplary anti-peanut allergen antibody 32B10 binds to different linear Ara h 2 epitopes than 12G10 and 37D5.

The next assay has as its target T6, Peptide 5 (peanut).
T6 construct: also called linear Ara h 2 peptide 5
T6 peptide: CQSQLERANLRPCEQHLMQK
Described as above. The protocol: as §2

For the next assay, the target named is T7, Peptide 8 (peanut).
T7 construct: also called linear Ara h 2 peptide 8
T7 peptide: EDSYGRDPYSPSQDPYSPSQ
The description is as above. The protocol:
as §2

The next assay addresses T8, Peptide 9 (peanut).
T8 construct: also called linear Ara h 2 peptide 9
T8 peptide: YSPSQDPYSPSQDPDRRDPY
The description is as above. As for the experimental part:
as §2

For a further assay, the target named is T9, Peptide 10 (peanut).
T9 construct: also called linear Ara h 2 peptide 10
T9 peptide: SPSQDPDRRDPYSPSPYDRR
The description is as above. The protocol:
as §2

Another assay deals with T10, Peptide 12 (peanut).
T10 construct: also called linear Ara h 2 peptide 12
T10 peptide: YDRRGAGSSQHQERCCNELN
Described as above. The protocol: as §2

The target in a further assay is T11, Peptide 14 (peanut).
T11 construct: also called linear Ara h 2 peptide 14
T11 peptide: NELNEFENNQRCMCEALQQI
The description is as above. The protocol:
as §2

Another assay addresses T12, Peptide 16 (peanut).
T12 construct: also called linear Ara h 2 peptide 16
T12 peptide: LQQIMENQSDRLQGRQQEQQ
The description is as above. The protocol:
as §2

For the next assay, the target named is T13, Peptide 20 (peanut).
T13 construct: also called linear Ara h 2 peptide 20
T13 peptide: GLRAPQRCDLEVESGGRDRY
The assay is described as above. As for the experimental part:
as §2

B1: h2F8 (antibody, V domains shown)
VH: EVQLVESGGGLVKPGGSLRLSCAASGFIFSDYNMNWVRQAPGKGLEWVSSITRSSRTIYYADSVKGRFTISRDNAKNSLHLQMNSLRDADTAVYYCAREDFDVSTGPYYMDVWGNGTTVIVSS
VL: EIVLTQSPGTLSLSPGERATLSCRASQSVSNMFLVWYQQKPGQAPRLLMYGASTRATDIPDRFSGSGSGTDFTLTISRLEPEDFAVYYCQQNGNSPYTFGQGTKLEIK
notes: Recombinant human IgG; also called hMAb 2F8
A word on the EC50: it is the concentration giving half of the maximal effect. Read a high EC50 as a need for much substance. Regarding B1, the EC50 in the assay with nAra h 2 was determined as 5.6 ng/mL; with nAra h 1, 8.5 ng/mL; in the assay with nAra h 6, 3.4 ng/mL. The binding result is listed as “no binding (tested: 1000 ng/ml)” in the assay with nBet v 1; “no binding (tested: 100 µM)” with Peptide 1; “no binding (tested: 100 µM)” with Peptide 5; “no binding (tested: 100 µM)” with Peptide 8; “no binding (tested: 100 µM)” in the assay with Peptide 9; “no binding (tested: 100 µM)” with Peptide 10. Moreover, the binding result with Peptide 12, with Peptide 14, with Peptide 16 and with Peptide 20 was “no binding (tested: 100 µM)” in each case.

B2: h7G6 (antibody, V domains shown)
VH: QVQLVESGGGVVQPGRSLRLSCAASGIAFNDYTMHWVRRSPDKGLEWVAAISYGGTNKYYADSVKGRFTISRDSSKNTLFLQMDSLRVEDTAVYYCARDSGYRSLLHWGQGTLVTVSS
VL: EIVLTQSPLSLPVTPGEPASISCRSSQSLVHRNGYNYLDWYLQKPGQSPQLLIYMASKRASGVPDRFSGSGSGTEFTLKISRVEAEDVGIYYCMQALQTWTFGQGTKVEVN
notes: Recombinant human IgG; also called hMAb 7G6
As for B2, the EC50 is 4.7 ng/mL in the assay with nAra h 2, 1.9 ng/mL with nAra h 1 and 2.6 ng/mL in the assay with nAra h 6. Moreover, the binding result in the assay with nBet v 1 was “no binding (tested: 1000 ng/ml)”; with Peptide 1, “no binding (tested: 100 µM)”; with Peptide 5 it was “no binding (tested: 100 µM)”; with Peptide 8, “no binding (tested: 100 µM)”; with Peptide 9, “no binding (tested: 100 µM)”; in the assay with Peptide 10, “no binding (tested: 100 µM)”. The binding result in the assay with Peptide 12, with Peptide 14, in the assay with Peptide 16 and with Peptide 20 was “no binding (tested: 100 µM)” in each case.
